For 1 substance, positive rate of the FoxP3-positive CCR8-positive fraction results are on record in patent WO2023219147A1.

The test concerns the target human CCR8 (human). As to the kind of experiment: flow cytometry on CD4-gated tumor-infiltrating cells of ovarian cancer; APC-labeled L263G8 2 ug/mL. (In general: Flow cytometry measures light scatter and fluorescence of single cells or particles in a stream.)

With “anti-human CCR8 antibody L263G8 (BioLegend)”, the positive rate of the FoxP3-positive CCR8-positive fraction is 46.6%.
